Results taken from publication PMC2206725, “Characterization of a negative transcriptional element in the BRCA1 promoter”.
Where a chain is given by its changes, count along the chain named.

B1: UPFR6mUP (dsDNA)
DNA 1: CCTTCTTTTAAGTTTCAACGGAAAAGCGCGGGAATTACAG
DNA 2: CTGTAATTCCCGCGCTTTTCCGTTGAAACTTAAAAGAAGG
B2: UPFR6 (dsDNA)
DNA 1: CCTTGGTTTCCGTGGCAACGGAAAAGCGCGGGAATTACAG
DNA 2: CTGTAATTCCCGCGCTTTTCCGTTGCCACGGAAACCAAGG
B3: UPFR6mGA (dsDNA)
DNA 1: B2 DNA 1 with C10A, C11A
DNA 2: B2 DNA 2 with G30T, G31T
B4: UPFR6mUS (dsDNA)
DNA 1: B2 DNA 1 with A17G, A18G, C19T, G20T, G21T
DNA 2: B2 DNA 2 with C20A, C21A, G22A, T23C, T24C
B5: UPFR6mGAmUS (dsDNA)
DNA 1: CCTTGGTTTAAGTGGCGGTTTAAAAGCGCGGGAATTACAG
DNA 2: CTGTAATTCCCGCGCTTTTAAACCGCCACTTAAACCAAGG
B6: UP (dsDNA)
DNA 1: CCTTGGTTTCCGTGGCAACGGAACCTT
DNA 2: AAGGTTCCGTTGCCACGGAAACCAAGG

Target: GABP alpha (MBP fusion from pMAL-C2);GABP beta (MBP fusion from pMAL-C2) (Homo sapiens;Homo sapiens, UniProt Q06546;Q06547 1-454;1-395, |)
Sequence (Q06546 whole entry, chain 1 of 2, the tested form may be a part): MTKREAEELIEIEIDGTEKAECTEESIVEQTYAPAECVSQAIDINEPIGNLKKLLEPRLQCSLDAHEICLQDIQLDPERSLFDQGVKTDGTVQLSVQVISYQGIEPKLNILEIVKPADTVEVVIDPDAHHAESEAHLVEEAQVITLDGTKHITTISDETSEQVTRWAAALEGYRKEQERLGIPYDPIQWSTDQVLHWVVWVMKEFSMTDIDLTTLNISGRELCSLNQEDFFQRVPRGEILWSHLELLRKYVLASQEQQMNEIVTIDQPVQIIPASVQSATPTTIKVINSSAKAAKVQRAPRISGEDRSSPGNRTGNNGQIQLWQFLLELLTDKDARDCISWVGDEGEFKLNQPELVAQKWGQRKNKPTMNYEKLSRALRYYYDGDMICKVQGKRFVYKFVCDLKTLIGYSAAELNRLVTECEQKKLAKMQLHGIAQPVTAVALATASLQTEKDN
Sequence (Q06547 whole entry, chain 2 of 2, the tested form may be a part): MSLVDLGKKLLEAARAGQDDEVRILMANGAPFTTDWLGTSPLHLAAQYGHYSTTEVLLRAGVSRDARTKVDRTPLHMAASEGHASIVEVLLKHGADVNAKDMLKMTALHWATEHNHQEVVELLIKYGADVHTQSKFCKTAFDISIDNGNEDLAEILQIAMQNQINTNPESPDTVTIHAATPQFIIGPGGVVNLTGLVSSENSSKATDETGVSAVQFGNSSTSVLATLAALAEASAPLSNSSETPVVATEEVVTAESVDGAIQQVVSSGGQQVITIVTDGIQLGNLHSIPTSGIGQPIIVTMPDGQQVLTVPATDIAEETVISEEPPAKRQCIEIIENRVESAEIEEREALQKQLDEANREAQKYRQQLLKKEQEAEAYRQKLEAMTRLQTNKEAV
Assay: EMSA; Bandshift conditions as in ref [16], not given; 6% nondenaturing acrylamide gel; recombinant proteins eluted in 25 mM HEPES pH 7.6, 0.1 mM EDTA, 40 mM KCl, 10%
Details: protein: recombinant;recombinant; tags: MBP N-terminal (pMAL-C2 vector);MBP N-terminal (pMAL-C2 vector); copies: 1;1; label: 32P

Binder	binding result
B1	no binding
B2	binds
B3	no binding
B4	binds
B5	no binding
B6	binds
